Reduction of the VWF activity measured data for one substance are collected here from patent US20250224393A1.

For the assay, the target named is Recombinantly expressed GPIb protein fragment of a gain-of-function mutant of the human GPIb protein (human) (UniProt P07359). The experiment in a line: latex agglutination VWF activity assay; HBR total protein up to 0.02 mg/mL in solution, comparison control.
UniProt P07359, sequence (P07359 other isoform, or with tags, fused parts or gaps mutant): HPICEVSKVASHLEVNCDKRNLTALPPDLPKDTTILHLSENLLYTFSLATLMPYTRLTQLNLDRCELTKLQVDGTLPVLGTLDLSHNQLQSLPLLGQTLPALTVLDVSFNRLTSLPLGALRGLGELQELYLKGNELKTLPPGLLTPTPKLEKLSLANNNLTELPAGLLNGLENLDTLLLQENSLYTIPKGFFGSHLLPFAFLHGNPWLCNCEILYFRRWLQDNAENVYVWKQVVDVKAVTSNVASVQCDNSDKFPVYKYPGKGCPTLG

With “HBR-1 reagent (Heterophilic Blocking Reagent 1, Scantibodies Laboratory, Inc.) containing a mixture of mouse immunoglobulins”, the reduction of the VWF activity measured is less than 2.6%.
